From paper PMC10355216 (2023)
Where no end group is shown, it is not given here.

B1: full-length CSNAP, C-terminally biotinylated (natural protein)
chain: MKPAVDEMFPEGAGPYVDLDEAGGSTGLLMDLAANEKAVHADFFNDFEDLFDDDDIQ-biotin

Target: T1, recombinant CSN^ΔCSNAP complex (UniProt Q13098 1-491; Q9UNS2 1-423; Q92905 1-334; Q99627 2-209)
Test: SPR

Kd [nM] | Binder
0.41 | AVHADFFNDFEDLFDDDDIQ-biotin [20AA C-CSNAP peptide, C-terminally biotinylated]
0.4 | DFFNDFEDLFDDDDIQ-biotin [16AA C-CSNAP peptide, C-terminally biotinylated]
2.5 | EFFNDFEDLFDDDDIQ-biotin [D42E C-CSNAP peptide, C-terminally biotinylated]
0.068 | B1

Target: T1, recombinant CSN^ΔCSNAP complex
Test: SPR
Remark: another data set of the same source

koff [s⁻¹] | Binder
0.001 | AVHADFFNDFEDLFDDDDIQ-biotin [20AA C-CSNAP peptide, C-terminally biotinylated]
0.0014 | DFFNDFEDLFDDDDIQ-biotin [16AA C-CSNAP peptide, C-terminally biotinylated]
0.0027 | EFFNDFEDLFDDDDIQ-biotin [D42E C-CSNAP peptide, C-terminally biotinylated]
0.00016 | B1
